The assay relates to Las17 PPR-N fragment (residues 300-422). Kind of assay: Biolayer Interferometry (BLI), Sla1 SH3 domains to Las17 PPR-N. Type of assay: binding, Saccharomyces cerevisiae. To be noted: for fold increase in affinity over single SH3 domain: BLI, tandem vs single SH3 domain. The source says:
To investigate binding characteristics of the SH3 domains further, Sla1 SH3 protein domains were purified. Three Sla1 SH3 single domains, tandem domains Sla1 SH3#1&2, Sla1 SH3#1&2 W108A (in which the W108A mutation prevents proline motif binding by SH3#2 but not SH3#1) and a fragment with all three SH3 domains were expressed recombinantly and purified. […] This outcome is in line with original research of Rodal and colleagues and with more recent studies of avidity developed by Williamson, which highlighted the importance of tandem binding SH3 domains[13],[27].
Biolayer Interferometry (BLI) assays were performed using an OctetⓇ R2 (Sartorius). Protein samples were placed into the wells of a polystyrene plate (ProxiPlateTM, Perkin Elmer) and binding measured either with Octet NTA Biosensors or Octet GST Biosensors. Screening assays were performed to determine the optimum loading concentration and time for each binding pair to ensure that the probe was not saturated. All experiments were repeated three times, each time with newly prepared protein. Analysis and visualisation were performed using GraphPad Prism 10.0.2.
(In general: In BLI a coated tip is dipped into the sample, and binding shifts an interference pattern.)

Broadly, the Kd is a measure of binding affinity in units of concentration.

B1: Sla1 SH3#1-2: SH3#1-2 (aa 5-131), tandem domains; sequence in b253 (protein)
chain: LGIYRAVYAYEPQTPEELAIQEDDLLYLLQKSDIDDWWTVKKRVIGSDSEEPVGLVPSTYIEEAPVLKKVRAIYDYEQVQNADEELTFHENDVFDVFDDKDADWLLVKSTVSNEFGFIPGNYVEPEN
modifications: 15N-labelled (NMR only); left off: GST, end not stated, cleaved
Turning to B1, the “fold increase in affinity over single SH3 domain” value is on record as approximately 100 fold. In addition, the “fold increase in affinity over single SH3 domain” value (listed as tandem Sla1 SH3 domains) is more than 100 fold. For the same molecule, the Kd (Biolayer Interferometry, Octet R2, Las17 (aa 300-422), three repeats with newly prepared protein, read-out: binding affinity (Kd)) came to 87 nM.

These data come from PMC12081870 (Communications Biology, 2025).
